Source: US10005817

Target: PTH receptor (PTHR1) (human) (UniProt Q03431)
Experiment: cell-based or functional assay

PTH receptor (PTHR1) (human), sequence (Q03431 27-593): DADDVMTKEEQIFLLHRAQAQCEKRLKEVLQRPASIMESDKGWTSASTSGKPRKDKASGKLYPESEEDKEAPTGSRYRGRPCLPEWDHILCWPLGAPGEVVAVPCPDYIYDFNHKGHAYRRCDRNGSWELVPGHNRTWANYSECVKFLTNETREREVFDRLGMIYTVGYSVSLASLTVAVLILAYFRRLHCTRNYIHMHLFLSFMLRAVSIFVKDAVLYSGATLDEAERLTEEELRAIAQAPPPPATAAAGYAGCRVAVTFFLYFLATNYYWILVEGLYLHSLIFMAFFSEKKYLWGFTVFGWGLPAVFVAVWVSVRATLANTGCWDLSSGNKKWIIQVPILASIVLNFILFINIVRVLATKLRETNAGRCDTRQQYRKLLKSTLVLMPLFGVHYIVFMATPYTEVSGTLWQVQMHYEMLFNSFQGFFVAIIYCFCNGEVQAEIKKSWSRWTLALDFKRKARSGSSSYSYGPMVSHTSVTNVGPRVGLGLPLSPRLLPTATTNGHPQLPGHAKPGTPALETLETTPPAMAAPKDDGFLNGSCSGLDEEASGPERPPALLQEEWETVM

- maximal response: 105%
Substance: PTH (internal standard) (ligand)
